In article PMC5481561, “The crystal structure of mammalian inositol 1,3,4,5,6-pentakisphosphate 2-kinase reveals a new zinc-binding site and key features for protein function” (The Journal of Biological Chemistry, 2017):
Residue numbers refer to the chain shown, from its start. Names may count otherwise.

Key:
[1] = substrate: O=P(O)(O)O[C@@H]1[C@@H](OP(=O)(O)O)[C@H](OP(=O)(O)O)[C@H](O)[C@H](OP(=O)(O)O)[C@H]1OP(=O)(O)O; experiment: HPLC of IP5-dependent ATP to ADP conversion; type: biochemical, Mus musculus; conditions: 50 μM ATP, 1 mM MgCl2, 20 mM Hepes, pH 7.3, 0.2–5 μM IP5
[2] = substrate: O=P(O)(O)O[C@@H]1[C@@H](OP(=O)(O)O)[C@H](OP(=O)(O)O)[C@H](O)[C@H](OP(=O)(O)O)[C@H]1OP(=O)(O)O; experiment: HPLC of IP5-dependent ATP to ADP conversion; type: biochemical, Mus musculus; conditions: 50 μM ATP, 1 mM MgCl2, 20 mM Hepes, pH 7.3, 0.2–5 μM IP5; remark: listed apart in the source
Text: HPLC of IP5-dependent ATP to ADP conversion on LSLt-ΔC-mIP5 2-K | showing very similar kinetic parameters (Fig. 3A)

B1: LSLt-ΔC-mIP5 2-K (Mus musculus) (protein)
chain: MEEGKMDENEWSYHGEGNKSLVVAHAQRCVVLRFLKFPPNKKKTSEEILQHLQNIVDFGKNVMKDFLGENYVHCGEVVQLPLEFVKQLCLKIQCERPESRCDKDLDTFSGYAMCLPNLTRLQTFHFAEHRPILCVEIKPKCGFIPFSNDVTHEMKHKVCRYCMHQHLKVATGKWKKISKYCPLDLYSGNKQRMHFALRSLLQETQNNLRIFKNGELIYGCGDARSPVADLKELAHHLKPFFFPSNGLASGPHCTKAVIRELVHVITRVLLSSSEKARAGALRLGLQGPRVCEASPFSRSLHNQGKNTSEHSGLPKGCLLYKTLQVQMLDQLDIEGLYPLYKRVEQYLEEFPEERKTLQIDGPYDEVFYQKLLDLSTEDDGTVAFALTKVQQYRVAMTAKDCSIMIALSPCLQGTSSDQRPVIPSSRSRLAFSVSVLDLDLKPYESIPHQYKLDSKIVNYYSKTVHAKD
notes: lacks the 21 C-terminal residues (stop codon at 469); LSLt (Laetiporus sulphureus lectin) tag kept; E. coli BL21 Star (DE3)
[1]
  Km: 0.29 µM

B2: LSLt-ΔC-mIP5 2-K (Mus musculus; K173A) (protein)
chain: B1 chain with K173A
notes: as for B1
[2]
  Km: 0.2729 ± 0.0895 µM
